# Earlier results, collected in patent publication US20040162315A1, “Use of compounds for treating conditions resulting from injury to the corneal nerve after LASIK and other ocular surgeries or trauma” (priority 2002, published 2004).
# B1: BDNF: neurotrophin family peptide, TrkB receptor-selective ligand (protein, UniProt P23560 19-247, looked up)
# Neurotrophic factor BDNF …: APMKEANIRGQGGLAYPGVRTHGTLESVNGPKAGSRGLTSLADTFEHVIEELLDEDQKVRPNEENNKDADLYTSRVMLSSQVPLEPPLLFLLEEYKNYLDAANMSMRVRRHSDPARRGELSVCDSISEWVTAADKKTAVDMSGGTVTVLEKVPVSKGQLKQYFYETKCNPMGYTKEGCRGIDKRHWNSQCRTTQSYVRALTMDSKKRIGWRFIRIDTSCVCTLTIKRGR
# Tested on: axotomized ocular nerves
# Conditions: single intravitreal injection of 5 μg, administered during the first five days after injury
molecule,measurement,value
B1,death of the axotomized ocular nerves,prevented the death of the axotomized ocular nerves
